Source: US12186374B2 (Sanofi-Aventis Deutschland GmbH, priority 2014, dated 2025)

Key:
[1] = system: patients with Type 2 diabetes mellitus (T2DM); assay: Fasting plasma glucose change from baseline to Week 30 (Example 2); format: in vivo, human
Protocol: FPG is measured at a central laboratory. At V5 and V21, FPG will be part of the standardized meal test.
Similar MMRM method or ANCOVA was applied on continuous secondary efficacy endpoints and Cochran-Mantei-Haenszel method stratified by randomization strata was applied on categorical efficacy endpoints.

[2] = system: patients with Type 2 diabetes mellitus (T2DM); assay: ALT increase reported on AE form (Example 2); conditions: on-treatment period
[3] = system: patients with T2DM; assay: Treatment-emergent adverse events incl. serious, fatal, leading to discontinuation (Example 3)
[4] = PT ≥3% in any treatment group, Safety population

“Gly(A21)-Arg(B31)-Arg(B32)-human insulin [Insulin Glargine]” was tested, and the “FPG, LS mean change from baseline to Week 30” value ([1]; Example 2) was -3.27 mmol/L, the “Fasting plasma glucose, change from baseline to Week 30, LS Mean (SE)” value ([1]; MMRM, mITT population) was −3.27 (0.091) mmol/L and the “Fasting plasma glucose, Week 30, Mean (SD)” value ([1]; mITT population) was 6.53 (1.76) mmol/L. The “Fasting plasma glucose, Week 30, Median” value ([1]; mITT population) was 6.20 mmol/L, the “Patients with AE of ALT increase” value ([2]; Example 2) was 2 patients and the “Events reported on the AE form for ALT increase: Alanine aminotransferase increased” value ([2]; Safety population) was 2 (0.4%) n (%). The “Patients with events reported on the AE form for ALT increase: Any” value ([2]; Safety population) was 2 (0.4%) n (%), the “Diarrhoea, % of patients” value ([3]; Example 3) was 2.7% and the “Incidence of gastrointestinal disorder (System organ class) events” value ([3]; Example 3) was 7.9%. The “Nasopharyngitis, % of patients” value ([3]; Example 3) was 8.8%, the “Nausea, % of patients” value ([3]; Example 3) was 0.5% and the “Patients discontinuing due to nausea, number” value ([3]; Example 3) was “none”. The “Patients reporting treatment-emergent adverse events, %” value ([3]; Example 3) was 52.3%, the “Patients reporting treatment-emergent adverse events, number” value ([3]; Example 3) was 191 patients and the “Patients who withdrew from treatment due to TEAEs, %” value ([3]; Example 3) was 0.8%. For the same substance, the “Patients who withdrew from treatment due to TEAEs, number” value ([3]; Example 3) was 3 patients, the “Patients with at least 1 TEAE leading to death” value ([3]; Example 3) was 2 patients and the “Serious TEAEs, % of patients” value ([3]; Example 3) was 4.9%. The “Serious TEAEs, number of patients” value ([3]; Example 3) was 18 patients, the “Vomiting, % of patients” value ([3]; Example 3) was 0.5% and the “Common TEAE, PT Diarrhoea, number of patients” value [3, 4] was 10 n. The “Common TEAE, PT Diarrhoea, percentage of patients” value [3, 4] was “(2.7%)”, the “Common TEAE, PT Headache, number of patients” value [3, 4] was 10 n and the “Common TEAE, PT Headache, percentage of patients” value [3, 4] was “(2.7%)”. The “Common TEAE, PT Influenza, number of patients” value [3, 4] was 11 n, the “Common TEAE, PT Influenza, percentage of patients” value [3, 4] was “(3.0%)” and the “Common TEAE, PT Nasopharyngitis, number of patients” value [3, 4] was 32 n. The “Common TEAE, PT Nasopharyngitis, percentage of patients” value [3, 4] was “(8.8%)”, the “Common TEAE, PT Nausea, number of patients” value [3, 4] was 2 n and the “Common TEAE, PT Nausea, percentage of patients” value [3, 4] was “(0.5%)”. The “Common TEAE, PT Upper respiratory tract infection, number of patients” value [3, 4] was 11 n, the “Common TEAE, PT Upper respiratory tract infection, percentage of patients” value [3, 4] was “(3.0%)” and the “Common TEAE, PT Vomiting, number of patients” value [3, 4] was 2 n. For the same substance, the “Common TEAE, PT Vomiting, percentage of patients” value [3, 4] was “(0.5%)”, the “Common TEAE, SOC Gastrointestinal disorders, number of patients” value [3, 4] was 29 n and the “Common TEAE, SOC Gastrointestinal disorders, percentage of patients” value [3, 4] was “(7.9%)”. For the same substance, the “Common TEAE, SOC Infections and infestations, number of patients” value [3, 4] was 112 n, the “Common TEAE, SOC Infections and infestations, percentage of patients” value [3, 4] was “(30.7%)” and the “Common TEAE, SOC Nervous system disorders, number of patients” value [3, 4] was 19 n. The “Common TEAE, SOC Nervous system disorders, percentage of patients” value [3, 4] was “(5.2%)”, the “% of patients experiencing TEAE(s) leading to permanent treatment discontinuation: Cardiopulmonary failure” value ([3]; PT, Safety population) was “(0.3%)” and the “% of patients experiencing TEAE(s) leading to permanent treatment discontinuation: Gallbladder cancer” value ([3]; PT, Safety population) was “(0.3%)”. For the same substance, the “% of patients experiencing TEAE(s) leading to permanent treatment discontinuation: Pregnancy” value ([3]; PT, Safety population) was “(0.3%)”, the “% of patients experiencing serious TEAE(s): Benign prostatic hyperplasia” value ([3]; PT, Safety population) was “(0.3%)” and the “% of patients experiencing serious TEAE(s): Cardiac failure congestive” value ([3]; PT, Safety population) was “(0.3%)”. For the same substance, the “% of patients experiencing serious TEAE(s): Cardiopulmonary failure” value ([3]; PT, Safety population) was “(0.3%)”, the “% of patients experiencing serious TEAE(s): Chest discomfort” value ([3]; PT, Safety population) was “(0.3%)” and the “% of patients experiencing serious TEAE(s): Cholecystitis acute” value ([3]; PT, Safety population) was “(0.3%)”. The “% of patients experiencing serious TEAE(s): Gallbladder cancer” value ([3]; PT, Safety population) was “(0.3%)”, the “% of patients experiencing serious TEAE(s): Glaucoma” value ([3]; PT, Safety population) was “(0.3%)” and the “% of patients experiencing serious TEAE(s): Hypertension” value ([3]; PT, Safety population) was “(0.3%)”. The “% of patients experiencing serious TEAE(s): Hypoglycaemia” value ([3]; PT, Safety population) was “(0.3%)”, the “% of patients experiencing serious TEAE(s): Intervertebral disc protrusion” value ([3]; PT, Safety population) was “(0.3%)” and the “% of patients experiencing serious TEAE(s): Kaposi’s sarcoma” value ([3]; PT, Safety population) was “(0.3%)”. The “% of patients experiencing serious TEAE(s): Meniscus injury” value ([3]; PT, Safety population) was “(0.3%)”, the “% of patients experiencing serious TEAE(s): Non-cardiac chest pain” value ([3]; PT, Safety population) was “(0.3%)” and the “% of patients experiencing serious TEAE(s): Osteomyelitis” value ([3]; PT, Safety population) was “(0.3%)”. The “% of patients experiencing serious TEAE(s): Pneumonia” value ([3]; PT, Safety population) was “(0.3%)”, the “% of patients experiencing serious TEAE(s): Renal impairment” value ([3]; PT, Safety population) was “(0.3%)” and the “% of patients experiencing serious TEAE(s): Wound infection” value ([3]; PT, Safety population) was “(0.3%)”. The “Number of patients experiencing TEAE(s) leading to permanent treatment discontinuation: Angina unstable” value ([3]; PT, Safety population) was 0, the “Number of patients experiencing TEAE(s) leading to permanent treatment discontinuation: Benign gastric neoplasm” value ([3]; PT, Safety population) was 0 and the “Number of patients experiencing TEAE(s) leading to permanent treatment discontinuation: Cardiopulmonary failure” value ([3]; PT, Safety population) was 1. The “Number of patients experiencing TEAE(s) leading to permanent treatment discontinuation: Dizziness” value ([3]; PT, Safety population) was 0, the “Number of patients experiencing TEAE(s) leading to permanent treatment discontinuation: Gallbladder cancer” value ([3]; PT, Safety population) was 1 and the “Number of patients experiencing TEAE(s) leading to permanent treatment discontinuation: Hypoglycaemic unconsciousness” value ([3]; PT, Safety population) was 0. The “Number of patients experiencing TEAE(s) leading to permanent treatment discontinuation: Nausea” value ([3]; PT, Safety population) was 0, the “Number of patients experiencing TEAE(s) leading to permanent treatment discontinuation: Pneumonia” value ([3]; PT, Safety population) was 0 and the “Number of patients experiencing TEAE(s) leading to permanent treatment discontinuation: Pregnancy” value ([3]; PT, Safety population) was 1. The “Number of patients experiencing TEAE(s) leading to permanent treatment discontinuation: Weight increased” value ([3]; PT, Safety population) was 0, the “Number of patients experiencing serious TEAE(s): Acute myocardial infarction” value ([3]; PT, Safety population) was 0 and the “Number of patients experiencing serious TEAE(s): Angina unstable” value ([3]; PT, Safety population) was 0. For the same substance, the “Number of patients experiencing serious TEAE(s): Arteriosclerosis coronary artery” value ([3]; PT, Safety population) was 0, the “Number of patients experiencing serious TEAE(s): Benign breast neoplasm” value ([3]; PT, Safety population) was 0 and the “Number of patients experiencing serious TEAE(s): Benign gastric neoplasm” value ([3]; PT, Safety population) was 0. The “Number of patients experiencing serious TEAE(s): Benign prostatic hyperplasia” value ([3]; PT, Safety population) was 1, the “Number of patients experiencing serious TEAE(s): Breast cancer” value ([3]; PT, Safety population) was 0 and the “Number of patients experiencing serious TEAE(s): Cardiac failure congestive” value ([3]; PT, Safety population) was 1.
